In this assay the target is T1, MBP-PDZ protein (Erbin PDZ) with a single cysteine, conjugated to DNA (UniProt Q96RT1 1321-1410, ATTO 532 (labelled with ATTO 532-NHS); amine-modified DNA oligonucleotide coupled through sulfo-SMCC to the single cysteine between MBP and PDZ).
T1 chain: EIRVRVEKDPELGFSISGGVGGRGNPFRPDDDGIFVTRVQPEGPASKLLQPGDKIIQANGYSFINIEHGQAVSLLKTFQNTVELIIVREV
Briefly: FP; no DNA attached to MBP-PDZ.

Here are results for one molecule from paper PMC12311895 (2025).

Where no end group is shown, it is not given here.

The Kd is the constant that tells how readily two partners part at equilibrium. A low value points to a tighter complex. With CGAGRGSIDTWV (also: ATTO 655 label (site not given here)) [ATTO 655-labeled target peptide], the Kd amounted to 200 nM.
